The text below walks through data of patent US9926369B2, “Methods for treating hepatocellular cancer by administering an anti-Ang-2 antibody” (Regeneron Pharmaceuticals, Inc., priority 2009, dated 2018).

As a reminder, the Kd is the free concentration of one partner at which half of the binding sites on the other are occupied at equilibrium, for simple one-to-one binding. Low readings indicate tighter binding, high ones weaker binding.

In assay [1] the target is T1, hAng-1-WT binding to hTie-2-mFc (Homo sapiens, UniProt Q15389).
T1 sequence (Q15389 20-498 limits assumed): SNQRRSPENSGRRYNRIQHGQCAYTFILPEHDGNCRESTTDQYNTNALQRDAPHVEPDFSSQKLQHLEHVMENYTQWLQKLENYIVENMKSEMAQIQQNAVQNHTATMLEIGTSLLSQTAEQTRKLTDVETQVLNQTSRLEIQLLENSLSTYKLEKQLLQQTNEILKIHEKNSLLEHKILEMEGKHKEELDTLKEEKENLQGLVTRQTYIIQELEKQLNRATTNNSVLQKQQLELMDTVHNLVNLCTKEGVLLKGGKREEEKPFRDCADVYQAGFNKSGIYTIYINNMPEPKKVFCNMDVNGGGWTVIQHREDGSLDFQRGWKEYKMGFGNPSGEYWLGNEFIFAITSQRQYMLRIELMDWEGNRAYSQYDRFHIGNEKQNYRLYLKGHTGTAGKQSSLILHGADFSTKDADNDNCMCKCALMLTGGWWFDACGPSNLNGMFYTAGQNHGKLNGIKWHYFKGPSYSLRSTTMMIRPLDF
The assay is described as follows: Biosensor SPR blocking of hAng-1-WT binding to hTie-2-mFc-ecto surface. It is filed as biochemical. The following applies: for Percent of Neg. Ctrl Binding (hAng-1 WT) / Specific Bound RU (hAng-1 WT): 10 nM hAng-1-WT. On the procedure: In an effort to further assess the ability of selected anti-hAng-2 antibodies to block the binding of Ang-1 to Tie-2, a biosensor surface plasmon resonance experiment was conducted. In this experiment, a human Tie-2 full-length extracellular domain construct (hTie-2-mFc-ecto) was amine-coupled on a BIACORE™ chip to create a receptor coated surface. Selected anti-hAng-2 antibodies and control constructs, at 1 μM (100-fold excess over antigen), were premixed with 10 nM of hAng-1-WT, followed by 60 minutes incubation at 25° C. to allow antibody-antigen binding to reach equilibrium to form equilibrated solutions. The equilibrated solutions were injected over the receptor surfaces at 5 μL/min for 5 minutes at 25° C. Changes in resonance units (RU) due to the binding of the hAng-1-WT to hTie-2-mFc were determined. An irrelevant peptibody construct with no binding to hAng-1 was included in this experiment to establish the 0% blocking baseline, and a human Tie-2-mFc construct was used as a positive control for blocking. The amount of Ang-1 bound to Tie-2 following antibody preincubation, expressed as a percentage of the amount of Ang-1 bound to Tie-2 following negative control preincubation, is shown in Table 20. (A greater amount of Ang-1 binding to Tie-2 signifies a lower degree of antibody blocking).
(§1) The foregoing experiment was repeated using different amounts of Ang-2 blockers and controls. In particular, a human Tie-2 full-length extracellular domain construct (hTie-2-mFc-ecto) was amine-coupled on a BIACORE™ chip to create a receptor-coated surface. Selected anti-hAng-2 antibodies and control constructs (50 or 150 nM) were mixed with hAng-2-WT (25 nM) followed by 60 minutes incubation at 25° C. to allow antibody-antigen binding to reach equilibrium. The equilibrated solutions were injected over the receptor surfaces at 10 μL/min for 5 minutes at 25° C. To evaluate the ability of the selected anti-hAng-2 antibodies to block Ang-1-WT binding to hTie-2, a similar procedure was followed except the antibodies were tested at three concentrations (50, 100 or 1000 nM) and incubated with 10 nM of hAng-1-WT. Changes in resonance units (RU) due to the binding of the Ang-2-WT or hAng-1-WT to hTie-2-mFc were determined. An irrelevant antibody with no binding to either angiopoietin was included in these experiments to establish the 0% blocking baseline, and a human Tie-2-mFc construct was used as a positive control for blocking. Results are summarized in Tables 21 (hAng-1 applied to a hTie-2 surface) and 22 (hAng-2 applied to a hTie-2 surface).

The target in the next assay is T2, hAng-2-WT (Homo sapiens, UniProt O15123).
T2 construct: wild-type human Ang-2 (hAng-2-WT)
T2 sequence (O15123 19-496): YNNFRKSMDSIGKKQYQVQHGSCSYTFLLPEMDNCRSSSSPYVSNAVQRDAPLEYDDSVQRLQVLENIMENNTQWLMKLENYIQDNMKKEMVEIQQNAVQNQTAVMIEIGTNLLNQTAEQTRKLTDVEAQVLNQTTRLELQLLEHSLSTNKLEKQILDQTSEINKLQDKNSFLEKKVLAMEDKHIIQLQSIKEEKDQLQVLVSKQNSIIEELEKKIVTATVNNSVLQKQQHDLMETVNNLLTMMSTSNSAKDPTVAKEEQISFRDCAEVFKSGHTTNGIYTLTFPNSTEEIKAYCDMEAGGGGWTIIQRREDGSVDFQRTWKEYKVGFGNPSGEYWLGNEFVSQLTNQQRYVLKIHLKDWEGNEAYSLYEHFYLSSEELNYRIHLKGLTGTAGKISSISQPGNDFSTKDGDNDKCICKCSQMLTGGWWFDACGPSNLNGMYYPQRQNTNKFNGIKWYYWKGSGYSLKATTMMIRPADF
Briefly: SPR binding to wild-type human Ang-2 (Table 8). The method, then:
Equilibrium dissociation constants (KD values) for the binding of selected purified Ang-2 antibodies to dimeric fibrinogen-like domain of human (SEQ ID NO: 519), mouse (Mus musculus; SEQ ID NO: 520) and monkey (Macca fascicularis; SEQ ID NO: 521) Ang-2 (Ang-2FD) conjugated to human IgG1 (SEQ ID NO:528) were determined by surface kinetics using a real-time biosensor surface plasmon resonance assay. Antibody was captured on a goat anti-mouse IgG polyclonal antibody surface, a goat anti-human κ polyclonal antibody (Southern Biotech, Birmingham, Ala.) surface or a goat anti-human IgG polyclonal antibody (Jackson Immuno Research Lab, West Grove, Pa.) surface created through direct amine coupling to a BIACORE™ CM5 sensor chip to form a captured antibody surface. Varying concentrations (ranging from 50 nM to 6.25 nM) of protein were injected at 100 μl/min over captured antibody surface for 90 seconds. Antigen-antibody binding and dissociation were monitored in real time at room temperature. Kinetic analysis was performed to calculate KD and half-life of antigen/antibody complex dissociation.
In yet another experiment, KD values for selected purified antibodies that bind to wild-type human Ang-2 (hAng-2-WT; SEQ ID NO: 518) and the fibrinogen-like domain of human Ang2 (hAng-2FD) were determined (as described above).
For orientation: SPR reads the build-up and loss of mass on a sensor chip optically.

In assay [2] the target is T3, hAng-2-WT binding to hTie-2-mFc (Homo sapiens, UniProt O15123).
T3 sequence (O15123 19-496): T2 sequence (O15123 19-496)
The assay is described as follows: Biosensor SPR blocking of hAng-2-WT binding to hTie-2-mFc-ecto surface. It is filed as biochemical. The conditions noted are these: 25 nM hAng-2-WT. The method, then: as §1

Where [3] appears, read: 1 μM antibody premixed with 10 nM hAng-1-WT, 25° C.

For “H1H685P: human anti-Ang-2 antibody, HCVR/LCVR SEQ ID NOs 18/20; also referred to as mAb1 [Antibody H1H685P]”, in assay [1], the “Blocking of binding of human Ang-1 to human Tie-2 (in words)” value is “do not significantly block”. The “Percent of Neg. Ctrl Binding (hAng-1 WT)” value in assay [1] (50 nM antibody or control) amounted to 95%; in assay [1] (100 nM antibody or control), 95%; in assay [1] (1000 nM antibody or control) it was 105%. Further, the “Specific Bound RU (hAng-1 WT)” value was found to be 299 RU in assay [1] (50 nM antibody or control), 291 RU in assay [1] (100 nM antibody or control) and 289 RU in assay [1] (1000 nM antibody or control). Further, the “Percent of Negative Control Binding (hAng-1-WT to Tie-2)” value in assay [1] (setting [3]) is 81%. Besides, in assay [1] (setting [3]), the “RU (average), hAng-1-WT bound to hTie-2-mFc” value worked out at 137 RU. Moreover, the affinity with hAng-2-WT, expressed as Kd, was 0.0476 nM. The “Percent of Neg. Ctrl Binding (hAng-2 WT)” value in assay [2] (50 nM antibody or control) and in assay [2] (150 nM antibody or control) was 4.3% throughout. For the same substance, the “Specific Bound RU (hAng-2 WT)” value in assay [2] (50 nM antibody or control) and in assay [2] (150 nM antibody or control) was 12 RU each time.
